The results in this text go back to the DeepSol protein solubility set.

This data set in a line: soluble on expression in E. coli; label from the status in PepcDB or PDB records.
Take “MSLKILFVAAEGAPFSKTGGLGDVIGALPKSLVKAGHEVAVILPYYDMVEAKFGNQIEDVLHFEVSVGWRRQYCGIKKTVLNGVTFYFIDNQYYFFRGHVYGDFDDGERFAFFQLAAIEAMERIDFIPDLLHVHDYHTAMIPFLLKEKYRWIQAYEDIETVLTIHNLEFQGQFSEGMLGDLFGVGFERYADGTLRWNNCLNWMKAGILYANRVSTVSPSYAHEIMTSQFGCNLDHILKMESGKVSGIVNGIDADLYNPQTDALLDYHFNQEDLSGKAKNKAKLQERVGLPVRADVPLVGIVSRLTRQKGFDVVVESLHHILQEDVQIVLLGTGDPAFEGAFSWFAQIYPDKLSTNITFDVKLAQEIYAACDLFLMPSRFEPCGLSQMMAMRYGTLPLVHEVGGLRDTVRAFNPIEGSGTGFSFDNLSPYWLNWTFQTALDLYRNHPDIWRNLQKQAMESDFSWDTACKSYLDLYHSLVNEGHHHHHH”: the “soluble on expression in E. coli” value was “soluble”.
Turning to “MSWIERIKSNITPTRKASIPEGVWTKCDSCGQVLYRAELERNLEVCPKCDHHMRMTARNRLHSLLDEGSLVELGSELEPKDVLKFRDSKKYKDRLASAQKETGEKDALVVMKGTLYGMPVVAAAFEFAFMGGSMGSVVGARFVRAVEQALEDNCPLICFSASGGARMQEALMSLMQMAKTSAALAKMQERGLPYISVLTDPTMGGVSASFAMLGDLNIAEPKALIGFAGPRVIEQTVREKLPPGFQRSEFLIEKGAIDMIVRRPEMRLKLASILAKLMNLPAPNPEAPREGVVVPPVPDQEPEALEHHHHHH”, the “soluble on expression in E. coli” value is “not soluble”.
Under “MGNTAMWMSCNPTIPILFGIQVKIFPLNQIFNHIHPARYAVTFENNVDSKLRRHWVAGATIRIIDRQTDEVIAKKTIYVFEKGLDGTGGARMPWKFAILCNKERLTSSEPLSDFVLSVLKPYILRPLYIASLRRDD” stands “not soluble”; under “MLDRFATKQTQEKLKIGVVGVFAIGCLFPLLSDFKRSYPHIDLHISTHNNRVDPAAEGLDYTIRYGGGAWHDTDAQYLCSALMSPLCSPTLASQIQTPADILKFPLLRSYRRDEWALWMQTVGEAPPSPTHNVMVFDSAVTMLEAAQAGMGVAIAPVRMFTHLLSSERIVQPFLTQIDLGSFWITRLQSRPETPAMREFSRWLTGVLHKTSGSHHHHHH”, “soluble”.
For “MGSDKIHHHHHHMDRINYKHLHYFWHVARAGSVTRAAGQLNVSMQTISGQITKLEQQLGRSLFRQQGRGLALTEAGRLALDYADRIFLLGEELETALADPLLDQTLRLAAGISDVVPKGIASRLLRPALRTNGRLRLSCGEGDFDELIGELGRHRLDLVLADRPVASGEQQQFQSWPLLRCPVQLLAAPELHARCQAGFPASLEQAPLLLPSRDNVLRRQLEHWFDANGVRPDLVGEFDDHALMETFARQGLGLLPAPVSPDGEADHPGLLPLGALDGVWEHYYVTASRRKLQHPALQAILQAWT”, the “soluble on expression in E. coli” value is on record as “not soluble”.
With “SRVFLDHNALPDTLKVTYDSFCSNGVTHRNQPRGDCDGVQINVPITFQVKVTATECIQEQSFVIRALGFTDIVTVQVLPQCECRCRDQSRDRSLCHGKGFLECGICRCDTGYIGKNCEHH”, the “soluble on expression in E. coli” value was “soluble”.
Under “MRTLRIAQYSVLTVGFAIYMYRLIEEIPIDIRNLNSDSLEGIINSDELCDVTVSNRNRGLLVRNDSLDLDILKAKFTTFFSKR” stands “not soluble”.
Under “MTQATTRICILGGGFGGLYTALRLSQLPWESTPKPEIILVDQSDRFLFSPFLYELLTGELQAWEIAPPYQELLQGTGVRFHQAVVSEIDTDKQQVQLQNGLEIAYDRLVLALGGETPLDLVPGATTYAHHFRSITEVYRLEESLRVLEASETEKIRIAIVGAGYSGVELACKLADRIGEKGRFRLIEISDQILRTSPEFNRQAAKKALETRGVFIDLETKVVSIGENTISLEYKTQVDEIPVDLVIWTVGTRVAPLVKTLPLKQNQRGQITTTSKLQVLEHPEIFALGDLADCLDTEGKQVPATAQVAFQQADYTAWNIWASLTNRPLLPFRYQQLGEMMALGVDNATLTGLGIKLDGSLAYIARRLAYLYRLPTLEHQLKVGFSWLVSPIIKTLSQ” stands “not soluble”; under “MSLPNEQPGTGPADTTLEQQDTAAAEVGHPRRIRSFVRRAGRTSTGQQRAIDELGPRFLLPYAAAPLDWEAAFGRTGARRIFEIGFGMGETSAHIAQLRPDDDFLGVEVHEPGVGALLKLIGERGIGNVRIVSHDAVEVLAQMIPEGTLDGIHVFFPDPWHKKRHNKRRLIQGPFVARLAAHLRPGGYLHCATDWEEYAHQMLEVLSAEPLLENTADGFAPRPDYRPVTKFEKRGLRLGHGVWDVVFRKREGHHHHHH”, “not soluble”; under “MSLSQQVIIFDTTLRDGEQALQASLSVKEKLQIALALERMGVDVMEVGFPVSSPGDFESVQTIARQVKNSRVCALARCVEKDIDVAAESLKVAEAFRIHTFIATSPMHIATKLRSTLDEVIERAIYMVKRARNYTDDVEFSCEDAGRTPIADLARVVEAAINAGATTINIPDTVGYTMPFEFAGIISGLYERVPNIDKAIISVHTHDDLGLAVGNSLAAVHAGARQVEGAMNGIGERAGNCSLEEVIMAIKVRKDILNVHTAINHQEIWRTSQLVSQICNMPIPANKAIVGSGAFAHSSGIHQDGVLKNRENYEIMTPESIGLNQIQLNLTSRSGRAAVKHRMDEMGYKESEYNLDNLYDAFLKLADKKGQVFDYDLEALAFIGKQQEEPEHFRLDYFSVQSGSNDIATAAVKLACGEEVKAEAANGNGPVDAVYQAINRITEYNVELVKYSLTAKGHGKDALGQVDIVANYNGRRFHGVGLATDIVESSAKAMVHVLNNIWRAAEVEKELQRKAQHNENNKETVEGGSHHHHHH”, “soluble”.
For “MGSGKERDTFVYLAKLSEQAERYEEMVESMKSVAKLNVDLTVEERNLLSVGYKNVIGSRRASWRIFSSIEQKEAVKGNDVNVKRIKEYMEKVELELSNICIDIMSVLDEHLIPSASEGESTVFFNKMKGDYYRYLAEFKSGNERKEAADQSLKAYEIATTAAEAKLPPTHPIRLGLALNFSVFYYEIMNAPERACHLAKQAFDEAISELDTLNEESYKDSTLIMQLLRDNLTLWTSDISEEGGDDAHKTNGSAKPGAGGDDAE”, the “soluble on expression in E. coli” value is listed as “soluble”.
On to “MGHHHHHHSHMEVVDPQQLGMFTEGELMSVGMDTFIHRIDSTEVIYQPRRKRAKLIGKYLMGDLLGEGSYGKVKEVLDSETLCRRAVKILKKKKLRRIPNGEANVKKEIQLLRRLRHKNVIQLVDVLYNEEKQKMYMVMEYCVCGMQEMLDSVPEKRFPVCQAHGYFCQLIDGLEYLHSQGIVHKDIKPG”, for which the “soluble on expression in E. coli” value is reported as “not soluble”.
Under “MPEPHAVLYVTNELSHIVKNEFLPIWKLTGDESLNDLWLENGKYATDVYAYGDVSKWTIRQLRGHGFIFISTHKNVQLADIIKTVDVRVPREVARSHDMKAFENEIGRRRIRMRKGFGDALRNYAFKMAIEFHGSEAETLNDANPRLHKIYGMPEIPPLYMEYAEIGTRFDDEPTDEKLVSMLHYIVYSAEEVHYIGCGDLRTLMQFKKRSPGRFRRVLWHVYDPIAPECSDPNVIVHNIMVDSKKDILKHMNFLKRVERPFIWDVSSDRSQMNDHEWETTRFAEDRLGEEIAYEMGGAFSSALIKHRIPNSKDEYHCISTYLFPQPGADADMYELRNFMRLRGYSHVDRHMHPDASVTKVVSRDVRKMVELYHGRDCGSFLKKRLFEHLHIVRKNGLLHESDEPRADLFYLTNRCNMGLEPSIYEVMKKSVIATAWVGRAPLYDYDDFALPRSTVMLNGSYRDIRILDGNGAILFLMWRYPDIVKKDLTYDPAWAMNFAVSLKEPIPDPPVPDISLCRFIGLRVESSVLRVRNPTLHETADELKRMGLDLSGHLYVTLMSGAYVTDLFWWFKMILDWSAQNREQKLRDLKRSAAEVIEWKEQMAERPWHVRNDLIAALREYKRKMGMREGASIDSWLELLRHL” stands “soluble”; under “MSLAYMPMTTVQHIATTNEKQAQKIIAELNAGASFDSQVRKYQNNRQAHTTAGKLAQFDSYNQTLAPAIVQATAKLRVGHYVTKPVKTVMATADTKDKPTYEIINVVSREGHHHHHH”, “soluble”; under “MVDEVAKKKSKKEKDKDSKLEKALKAQNDLIWNIKDELKKVCSTNDLKELLIFNKQQVPSGESAILDRVADGMVFGALLPCEECSGQLVFKSDAYYCTGDVTAWTKCMVKTQTPNRKEWVTPKEFREISYLKKLKVKKQDRIFPPETSASVALEHHHHHH”, “soluble”.
Under “MLDANKLQQAVDQAYTQFHSLNGGQNADYIPFLANVPGQLAAVAIVTCDGNVYSAGDSDYRFALESISKVCTLALALEDVGPQAVQDKIGADPTGLPFNSVIALELHGGKPLSPLVNAGAIATTSLINAENVEQRWQRILHIQQQLAGEQVALSDEVNQSEQTTNFHNRAIAWLLYSAGYLYCDAMEACDVYTRQCSTLLNTIELATLGATLAAGGVNPLTHKRVLQADNVPYILAEMMMEGLYGRSGDWAYRVGLPGKSGVGGGILAVVPGVMGIAAFSPPLDEDGNSVRGQKMVASVAKQLGYNVFKGLEHHHHHH” stands “not soluble”; under “MHMEDFIQFFSGSNLSIDKANFDQFGLKAKIKHYQKGQLLITQGQPAPKLFFLIKGMVRYMSVSATGKEFTQSFAFAPGISGSTRAMTRNANALFSIEALDDVICLEFEWHVFFDQMQSQPGFLAAYNRLLENMFIKKEEREFAFVQQSAEQRYLTFLDMNPQLRDKISLKMIASHIGITPIALSRIRNKLK”, “not soluble”; under “MNKILIAAASSGAGKTTVTLGIMQALKKRGFAVQPFKVGPDYIDTNYHQAITGVASINLDSFLIDDDEMLASLFQKHGESADISVIEGVMGLFDGLGTDRDNASTSFIAKCTKTPVILVVDGKAISTSAAAIVDGFNRFDPELKIAGVIINRVASENHFSLIKGAIERYTDVPVLGYLPKNAAVALPERHLGLVPQEEMTELEAKWELLSDLITTHVDLDKLLEISKSSENLSTSKAQMKVADFSGLRVAYALDAAFHFYYQDNLDLIRLTGAELIPFSPLEDNEVPEADFIYIGGGFPEIFAKQLNDNRSMRKSILAAHEKGIPIYAECGGLMYLGSSLEMEGKQYEMVGVFNGISKMTTRLRKFGYCIAEPLEETLIGKKGMSIRGHEFHHSVFETTETACMKLSKKRDGEIVKEWRGGYQKGNTFASYLHIHFYQNPAILMQMFGAGKRLEHHHHHH”, “soluble”.
“MSLNQWMELADRVLAGAEVTDEEALSILHCPDEDILLLMHGAFHIRKHFYGKKVKLNMIMNAKSGLCPENCGYCSQSAISKAPIESYRMVNKETLLEGAKRAHDLNIGTYCIVASGRGPSNREVDQVVDAVQEIKETYGLKICACLGLLKPEQAKRLKDAGVDRYNHNLNTSQRNHSNITTSHTYDDRVNTVEIAKESGLSPCSGAIIGMKETKQDVIDIAKSLKALDADSIPVNFLHAIDGTPLEGVNELNPLYCLKVLALFRFINPSKEIRISGGREVNLRTLQPLGLYAANSIFVGDYLTTAGQEETEDHKMLSDLGFEVESVEEMKASLSAKSEGHHHHHH”: the “soluble on expression in E. coli” value is “soluble”.
As for “MSLTYINKEKVIKNLSYAIYLLKKMNFTLIPEVGSNIAESLPFPKDFKDVAALTGRIIKNKLGGFYIVGDIEFGASEHIAKIILSASKFNPEIRACMNIKYDGGLIKLLKDKFAVSSFDRKEEPPNVSTMEWGTKIACEKFGGVPDIIYDRGGEGKEPMIRVLGRDAIEVVKKVEVIQKIYNTLEGHHHHHH”, the “soluble on expression in E. coli” value was “soluble”.
Under “MGSDKIHHHHHHMDFIEVYPNALPNDLCDRLILAFEQHAGVVDGQTGNGVDLEKKISRDLTLDSFADLQPLKNELLGYTLKGTVDYFTKYSMALMGAVAVSVSDEQGQPVTLTPANFAALGAPRSDGLVKYLYRSGSINVQKYQQNKGGYPHWHSEQFPQNGHNEALHRVVLYMFYLNDMEEGGETEFYYQQRKISPKKGTMVIAPAGFTHTHRGNKPVSGDKYIATSWIMFNRAEQLYAVIA” stands “not soluble”.
